# T1: Redβ single strand annealing protein (bacteriophage λ, UniProt P03698)
# T1 sequence: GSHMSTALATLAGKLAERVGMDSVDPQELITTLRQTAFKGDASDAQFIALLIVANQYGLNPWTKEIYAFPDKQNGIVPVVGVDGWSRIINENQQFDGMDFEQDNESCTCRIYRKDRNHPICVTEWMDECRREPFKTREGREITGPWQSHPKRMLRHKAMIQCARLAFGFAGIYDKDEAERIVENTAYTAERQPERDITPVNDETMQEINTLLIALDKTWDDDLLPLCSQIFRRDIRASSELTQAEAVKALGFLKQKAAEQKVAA
# B1: dT38:dA38 (dsDNA)
# DNA 1: TTTTTTTTTTTTTTTTTTTTTTTTTTTTTTTTTTTTTT
# DNA 2: AAAAAAAAAAAAAAAAAAAAAAAAAAAAAAAAAAAAAA
# B2: Cy5 50mer:Cy3 50mer (annealed sequentially or pre-formed) (dsDNA)
# DNA 1: CCATCCGCAAAAATCGAGCTATGCAGGGCGATTCTGCTCTAAGCCATCCG
# DNA 2: GCGGATGGCTTAGAGCAGAATCGCCCTGCATAGCTCGATTTTTGCGGATG
# B3: 83- (ssDNA)
# DNA: TTGCATATTTAAAACATGTTGAGCTACAGCACCAGATTCAGCAATTAAGCTCTAAGCCATCCGCAAAAATGACCTCTTATCAA
# B4: 83-:87+ (dsDNA)
# DNA 1: TTGCATATTTAAAACATGTTGAGCTACAGCACCAGATTCAGCAATTAAGCTCTAAGCCATCCGCAAAAATGACCTCTTATCAA
# DNA 2: TTGATAAGAGGTCATTTTTGCGGATGGCTTAGAGCTTAATTGCTGAATCTGGTGCTGTAGCTCAACATGTTTTAAATATGCAATGAC
# B5: 83-:83+ (dsDNA)
# DNA 1: TTGCATATTTAAAACATGTTGAGCTACAGCACCAGATTCAGCAATTAAGCTCTAAGCCATCCGCAAAAATGACCTCTTATCAA
# DNA 2: TTGATAAGAGGTCATTTTTGCGGATGGCTTAGAGCTTAATTGCTGAATCTGGTGCTGTAGCTCAACATGTTTTAAATATGCAA
# Legend:
# [1] = molecular target: T1, Redβ single strand annealing protein; test: SEC-MALS; strands added sequentially, PBS; 358 kDa, n=11.3; EMSA: 10 uM Redβ, 50 uM nt DNA, 37 C, in PBS, or 20 mM Tris-HCl pH 7.5/10 mM NaCl/10 mM MgCl2, or 50 mM ammonium acetate pH 7.0; SEC-MALS: PBS, complexes formed; settings: protein: recombinant; tags: N-terminal GSH left after thrombin removal of 6xHis; chain copies: 11; blunt
# [2] = molecular target: T1, Redβ single strand annealing protein; test: EMSA; strands added sequentially, either order; EMSA: 10 uM Redβ, 50 uM nt DNA, 37 C, in PBS, or 20 mM Tris-HCl pH 7.5/10 mM NaCl/10 mM MgCl2, or 50 mM ammonium acetate pH 7.0; SEC-MALS: PBS, complexes formed; settings: protein: recombinant; tags: N-terminal GSH left after thrombin removal of 6xHis; chain copies: 11; label: 5'-Cy5 on strand 1, 5'-Cy3 on strand 2; 5' overhangs 1 nt (49 bp)
# [3] = molecular target: T1, Redβ single strand annealing protein; test: SEC-MALS; PBS; 653 kDa, n=21.1; EMSA: 10 uM Redβ, 50 uM nt DNA, 37 C, in PBS, or 20 mM Tris-HCl pH 7.5/10 mM NaCl/10 mM MgCl2, or 50 mM ammonium acetate pH 7.0; SEC-MALS: PBS, complexes formed; settings: protein: recombinant; tags: N-terminal GSH left after thrombin removal of 6xHis; chain copies: 11
# [4] = molecular target: T1, Redβ single strand annealing protein; test: native MS; strands added sequentially, 1 uM Redβ; 22 subunits, one copy of each strand; EMSA: 10 uM Redβ, 50 uM nt DNA, 37 C, in PBS, or 20 mM Tris-HCl pH 7.5/10 mM NaCl/10 mM MgCl2, or 50 mM ammonium acetate pH 7.0; SEC-MALS: PBS, complexes formed; settings: protein: recombinant; tags: N-terminal GSH left after thrombin removal of 6xHis; chain copies: 11; 3' overhang 4 nt on strand 2
# [5] = molecular target: T1, Redβ single strand annealing protein; test: SEC-MALS; strands added sequentially, PBS; 591 kDa, n=18.2; EMSA: 10 uM Redβ, 50 uM nt DNA, 37 C, in PBS, or 20 mM Tris-HCl pH 7.5/10 mM NaCl/10 mM MgCl2, or 50 mM ammonium acetate pH 7.0; SEC-MALS: PBS, complexes formed; settings: protein: recombinant; tags: N-terminal GSH left after thrombin removal of 6xHis; chain copies: 11; blunt
binder,measurement,setting,value
B1,binding result,[1],binds
B2,binding result,[2],binds
B3,binding result,[3],binds
B4,binding result,[4],binds
B5,binding result,[5],binds
